In US20230002480A1:

Legend:
Test in all cases: cell-based or functional assay
[1] = target: HIV-1 Env of pseudovirus CNE5 (HIV-1)
[2] = target: HIV-1 Env of pseudovirus REJO4541.67 (HIV-1)
[3] = target: HIV-1 Env of pseudovirus C1080.c03 (HIV-1)
[4] = target: HIV-1 Env of pseudovirus 6480.v4.c25 (HIV-1)
[5] = target: HIV-1 Env of pseudovirus Ce0682_E4 (HIV-1)
[6] = target: HIV-1 Env of pseudovirus T278-50 (HIV-1)
[7] = target: HIV-1 Env of pseudovirus HIV-16055-2.3 (HIV-1)
[8] = target: HIV-1 Env of pseudovirus CAAN5342.A2 (HIV-1)
[9] = target: HIV-1 Env of pseudovirus 6240_08_TA5_4622 (HIV-1)
[10] = target: HIV-1 Env of pseudovirus 3817.v2.c59 (HIV-1)
[11] = target: HIV-1 Env of pseudovirus 231966.c02 (HIV-1)
[12] = target: HIV-1 Env of pseudovirus R2184.c04 (HIV-1)
[13] = target: HIV-1 Env of pseudovirus Ce1172_H1 (HIV-1)
[14] = target: HIV-1 Env of pseudovirus WITO4160.33 (HIV-1)
[15] = target: HIV-1 Env of pseudovirus CNE58 (HIV-1)
[16] = target: HIV-1 Env of pseudovirus 211-9 (HIV-1)
[17] = target: HIV-1 Env of pseudovirus 0260.v5.c36 (HIV-1)
[18] = target: HIV-1 Env of pseudovirus Q259.d2.17 (HIV-1)
[19] = target: HIV-1 Env of pseudovirus 0815.v3.c3 (HIV-1)
[20] = target: HIV-1 Env of pseudovirus 9004SS_A3_4 (HIV-1)
[21] = target: HIV-1 Env of pseudovirus 6545.v4.c1 (HIV-1)
[22] = target: HIV-1 Env of pseudovirus C4118.c09 (HIV-1)
[23] = target: HIV-1 Env of pseudovirus CAP45.2.00.G3 (HIV-1)
[24] = target: HIV-1 Env of pseudovirus 6244_13_B5_4576 (HIV-1)
[25] = target: HIV-1 Env of pseudovirus 3415.v1.c1 (HIV-1)
[26] = target: HIV-1 Env of pseudovirus HIV-001428-2.42 (HIV-1)
[27] = target: HIV-1 Env of pseudovirus BJOX009000.02.4 (HIV-1)
[28] = target: HIV-1 Env of pseudovirus CNE17 (HIV-1)
[29] = target: HIV-1 Env of pseudovirus BJOX028000.10.3 (HIV-1)
[30] = target: HIV-1 Env of pseudovirus 6540.v4.c1 (HIV-1)
[31] = target: HIV-1 Env of pseudovirus R1166.c01 (HIV-1)
[32] = target: HIV-1 Env of pseudovirus X1254_c3 (HIV-1)

B1: N49P23 (antibody, V domains shown)
VH: QVRLVQSGAGARKTGASMKLSCSTSGYTFTTHHGHFINWVRQARGQGLEWMGWMNPMTGQMNIEGKFQGRVTLTRDIYSDTAYMEMTRLTTGDTGTYYCARGDFGQNYPFHYWGQGSLVIVSS
VL: LSALTQPASVSGSPGQSVTISCSGTNRYLVSWYQQHPDKAPKLIIYDDNKRPSGISDRFSASRPDDTASLTISGLQTGDEATYWCASYERFGGGTRLTVLS
Q: What does the source list for B1?
A: IC50 [1]: 0.058 µg/mL; IC80 [1]: 0.226 µg/mL; MPI [1]: 100; IC50 [2]: 0.008 µg/mL; IC80 [2]: 0.05 µg/mL; MPI [2]: 100; IC50 [3]: 1.33 µg/mL; IC80 [3]: 11.3 µg/mL; MPI [3]: 96; IC50 [4]: > 50 µg/mL; IC80 [4]: > 50 µg/mL; MPI [4]: 29; IC50 [5]: 1.39 µg/mL; IC80 [5]: > 50 µg/mL; MPI [5]: 76; IC50 [6]: > 50 µg/mL; IC80 [6]: > 50 µg/mL; MPI [6]: 22; IC50 [7]: > 50 µg/mL; IC80 [7]: > 50 µg/mL; MPI [7]: 17; IC50 [8]: 0.412 µg/mL; IC80 [8]: 1.38 µg/mL; MPI [8]: 100; IC50 [9]: 0.215 µg/mL; IC80 [9]: 1 µg/mL; MPI [9]: 100; IC50 [10]: > 50 µg/mL; IC80 [10]: > 50 µg/mL; MPI [10]: 41; IC50 [11]: 0.035 µg/mL; IC80 [11]: 0.158 µg/mL; MPI [11]: 100; IC50 [12]: 0.008 µg/mL; IC80 [12]: 0.032 µg/mL; MPI [12]: 100; IC50 [13]: > 50 µg/mL; IC80 [13]: > 50 µg/mL; MPI [13]: 0; IC50 [14]: 0.045 µg/mL; IC80 [14]: 0.205 µg/mL; MPI [14]: 100; IC50 [15]: > 50 µg/mL; IC80 [15]: > 50 µg/mL; MPI [15]: 9; IC50 [16]: > 50 µg/mL; IC80 [16]: > 50 µg/mL; MPI [16]: 14; IC50 [17]: 0.261 µg/mL; IC80 [17]: 0.919 µg/mL; MPI [17]: 100; IC50 [18]: 0.362 µg/mL; IC80 [18]: 7.79 µg/mL; MPI [18]: 91; IC50 [19]: 0.004 µg/mL; IC80 [19]: 0.014 µg/mL; MPI [19]: 100; IC50 [20]: 0.043 µg/mL; IC80 [20]: 0.223 µg/mL; MPI [20]: 100; IC50 [21]: > 50 µg/mL; IC80 [21]: > 50 µg/mL; MPI [21]: 10; IC50 [22]: 0.026 µg/mL; IC80 [22]: 0.12 µg/mL; MPI [22]: 100; IC50 [23]: > 50 µg/mL; IC80 [23]: > 50 µg/mL; MPI [23]: 0; IC50 [24]: 0.151 µg/mL; IC80 [24]: 0.57 µg/mL; MPI [24]: 100; IC50 [25]: 0.054 µg/mL; IC80 [25]: 0.19 µg/mL; MPI [25]: 100; IC50 [26]: 0.036 µg/mL; IC80 [26]: 0.241 µg/mL; MPI [26]: 98; IC50 [27]: > 50 µg/mL; IC80 [27]: > 50 µg/mL; MPI [27]: 8; IC50 [28]: 0.221 µg/mL; IC80 [28]: 0.809 µg/mL; MPI [28]: 100; IC50 [29]: 0.021 µg/mL; IC80 [29]: 0.123 µg/mL; MPI [29]: 98; IC50 [30]: > 50 µg/mL; IC80 [30]: > 50 µg/mL; MPI [30]: 29; IC50 [31]: 0.123 µg/mL; IC80 [31]: 0.455 µg/mL; MPI [31]: 100; IC50 [32]: 0.022 µg/mL; IC80 [32]: 0.111 µg/mL; MPI [32]: 100
